This assay addresses Human uPA (Chemicon) (human) (UniProt P00749). In words: cell-based or functional assay.

Chain of Glutathione S-transferase (GST)-tagged maspin (GST-maspin), bacterial recombinant (P08515 whole entry): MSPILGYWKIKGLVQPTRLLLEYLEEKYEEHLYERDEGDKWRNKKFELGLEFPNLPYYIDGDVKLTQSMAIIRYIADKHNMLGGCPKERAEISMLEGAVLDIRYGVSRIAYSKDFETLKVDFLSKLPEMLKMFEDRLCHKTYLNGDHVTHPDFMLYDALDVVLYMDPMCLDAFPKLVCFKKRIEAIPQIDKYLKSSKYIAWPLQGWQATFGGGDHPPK

In turn, “Glutathione S-transferase (GST)-tagged maspin (GST-maspin), bacterial recombinant (from UniProt P08515 1-218)” showed a maspin-mediated adhesion of uPA-stripped MCF0A cells resupplied with exogenous uPA (800 nM) (% of GST control) of 154.

Values taken from patent publication US20120302506A1.
